Results as given in article PMC9275217, “Improvement of Fusel Alcohol Production by Engineering of the Yeast Branched-Chain Amino Acid Aminotransaminase” (Applied and Environmental Microbiology, 2022).
Changes are numbered by the printed parent chain. Names may count otherwise.

B1: Bat1ΔN16^WT (Saccharomyces cerevisiae S288C) (protein)
chain: LATGAPLDASKLKITRNPNPSKPRPNEELVFGQTFTDHMLTIPWSAKEGWGTPHIKPYGNLSLDPSACVFHYAFELFEGLKAYRTPQNTITMFRPDKNMARMNKSAARICLPTFESEELIKLTGKLIEQDKHLVPQGNGYSLYIRPTMIGTSKGLGVGTPSEALLYVITSPVGPYYKTGFKAVRLEATDYATRAWPGGVGDKKLGANYAPCILPQLQAAKRGYQQNLWLFGPEKNITEVGTMNVFFVFLNKVTGKKELVTAPLDGTILEGVTRDSVLTLARDKLDPQEWDINERYYTITEVATRAKQGELLEAFGSGTAAVVSPIKEIGWNNEDIHVPLLPGEQCGALTKQVAQWIADIQYGRVNYGNWSKTVADLN
notes: first 16 residues (mitochondrial-targeting signal) removed; N-terminal His-tag (pET53-dest, tag not reported cut); E. coli BL21(DE3); dimer
B2: Bat1ΔN16^WT (Saccharomyces cerevisiae S288C; G333S) (protein)
chain: B1 chain with G317S
notes: as for B1
B3: Bat2^WT (Saccharomyces cerevisiae S288C; G316S) (protein)
chain: MTLAPLDASKVKITTTQHASKPKPNSELVFGKSFTDHMLTAEWTAEKGWGTPEIKPYQNLSLDPSAVVFHYAFELFEGMKAYRTVDNKITMFRPDMNMKRMNKSAQRICLPTFDPEELITLIGKLIQQDKCLVPEGKGYSLYIRPTLIGTTAGLGVSTPDRALLYVICCPVGPYYKTGFKAVRLEATDYATRAWPGGCGDKKLGANYAPCVLPQLQAASRGYQQNLWLFGPNNNITEVGTMNAFFVFKDSKTGKKELVTAPLDGTILEGVTRDSILNLAKERLEPSEWTISERYFTIGEVTERSKNGELLEAFGSSTAAIVSPIKEIGWKGEQINIPLLPGEQTGPLAKEVAQWINGIQYGETEHGNWSRVVTDLN
notes: N-terminal His-tag (pET53-dest, tag not reported cut); E. coli BL21(DE3); dimer
B4: Bat2^WT (Saccharomyces cerevisiae S288C) (protein)
chain: B3 chain with S316G
notes: as for B3

Assays:
[1] = target: T1, Bat1ΔN16^WT (Saccharomyces cerevisiae, UniProt P38891, G333S); test: NADH absorbance […] nm, coupled to glutamate dehydrogenase; format: biochemical; conditions: reverse reaction; 2 mM KG, 5 mM NAD+, 50 μM PLP, 200 mM potassium phosphate pH 8.5, 30°C; apparent
T1 construct: gene BAT1; first 16 residues (mitochondrial-targeting signal) removed; N-terminal His-tag (pET53-dest, tag not reported cut); E. coli BL21(DE3); dimer
T1 sequence (P38891 17-393 G333S): B1 chain with G317S

[2] = target: T2, Bat1ΔN16^WT (Saccharomyces cerevisiae, UniProt P38891); test: as above; format: biochemical; conditions: reverse reaction; 2 mM KG, 5 mM NAD+, 50 μM PLP, 200 mM potassium phosphate pH 8.5, 30°C; apparent
T2 construct: gene BAT1; first 16 residues (mitochondrial-targeting signal) removed; N-terminal His-tag (pET53-dest, tag not reported cut); E. coli BL21(DE3); dimer
T2 sequence (P38891 17-393): B1 chain

[3] = substrate: CC(C)CC(=O)C(=O)O; test: purified protein; format: biochemical, Saccharomyces cerevisiae; conditions: forward reaction, 100 mM Glu, 50 μM PLP, 100 mM NH4Cl, 0.25 mM NADH, 200 mM potassium phosphate pH 8.0, 30°C, apparent
[4] = substrate: CC[C@H](C)C(=O)C(=O)O; test: purified protein; format: biochemical, Saccharomyces cerevisiae; conditions: forward reaction, 100 mM Glu, 50 μM PLP, 100 mM NH4Cl, 0.25 mM NADH, 200 mM potassium phosphate pH 8.0, 30°C, apparent
[5] = substrate: CC(C)C(=O)C(=O)O; test: purified protein; format: biochemical, Saccharomyces cerevisiae; conditions: forward reaction, 100 mM Glu, 50 μM PLP, 100 mM NH4Cl, 0.25 mM NADH, 200 mM potassium phosphate pH 8.0, 30°C, apparent
[6] = substrate: CC[C@H](C)[C@H](N)C(=O)O; test: purified protein; conditions: reverse reaction, 2 mM KG, 5 mM NAD+, 50 μM PLP, 200 mM potassium phosphate pH 8.5, 30°C, apparent
[7] = substrate: CC(C)[C@H](N)C(=O)O; test: purified protein; conditions: reverse reaction, 2 mM KG, 5 mM NAD+, 50 μM PLP, 200 mM potassium phosphate pH 8.5, 30°C, apparent
[8] = substrate: CC(C)C[C@H](N)C(=O)O; test: purified protein; conditions: reverse reaction, 2 mM KG, 5 mM NAD+, 50 μM PLP, 200 mM potassium phosphate pH 8.5, 30°C, apparent

Molecule | Km [1] [mM] | Km [2] [mM] | Km [3] [µM] | kcat [3] [s⁻¹] | kcat/Km [3] [M⁻¹ s⁻¹] | Km [4] [µM] | kcat [4] [s⁻¹] | kcat/Km [4] [M⁻¹ s⁻¹] | Km [5] [µM] | kcat [5] [s⁻¹] | kcat/Km [5] [M⁻¹ s⁻¹] | Km [6] [µM] | kcat [6] [s⁻¹] | kcat/Km [6] [M⁻¹ s⁻¹] | Km [7] [µM] | kcat [7] [s⁻¹] | kcat/Km [7] [M⁻¹ s⁻¹] | Km [8] [µM] | kcat [8] [s⁻¹] | kcat/Km [8] [M⁻¹ s⁻¹]
CC(C)C[C@H](N)C(=O)O [Leu] | 3.08 ± 1.42 | 0.285 ± 0.0679 | – | – | – | – | – | – | – | – | – | – | – | – | – | – | – | – | – | –
B1 | – | – | 323 ± 101 | 15.4 ± 2.92 | 47700 | 218 ± 111 | 4.73 ± 1.29 | 21700 | 298 ± 100 | 9.55 ± 1.92 | 32100 | 220 ± 102 | 3.74 | 17000 | 454 ± 123 | 3.37 | 7420 | – | – | –
B2 | – | – | 1570 ± 505 | 4.95 ± 0.945 | 3150 | – | – | – | – | – | – | – | – | – | – | – | – | – | – | –
B3 | – | – | 681 ± 189 | 5.42 ± 0.615 | 7960 | 308 ± 134 | 2.01 ± 0.282 | 6530 | 1730 ± 826 | 1.79 ± 0.521 | 1030 | 3400 ± 1140 | 1.8 | 529 | 13300 ± 3440 | 1.4 | 106 | 3890 ± 1060 | 1.61 | 414
B4 | – | – | 212 ± 61 | 11.6 ± 1.82 | 54700 | 150 ± 59.4 | 5.48 ± 1.04 | 36500 | 180 ± 44.4 | 8.05 ± 1.02 | 44700 | 119 ± 38.9 | 2.61 | 21900 | 511 ± 111 | 2.71 | 5300 | 189 ± 60 | 2.3 | 12200
